Reference: patent US20140031283A1, “ANTICANCER FUSION PROTEIN” (ADAMED SP. Z O.O., priority 2011, published 2014)
Several values for one entry are separate records, joined by “and”; a condition that tells them apart may be missing. Equal values may be shown once. One block for each molecule: values may come before it.

How the values were obtained:
HT-29 = experiment: MTT cytotoxicity test, HT-29 (human colorectal cancer); type: cell-based; settings: Table 4, mean/SD part; listed as Ex. 17^a
Description: (§1) MTT assay is a colorimetric assay used to measure proliferation, viability and cytotoxicity of cells. It consists in decomposition of a yellow tetrazolium salt MTT (4,5-dimethyl-2-thiazolyl)-2,5-diphenyltetrazolium bromide) to the water-insoluble purple dye formazan by mitochondrial enzyme succinate-tetrazolium reductase 1. MTT reduction occurs only in living cells. Data analysis consists in determining IC50 concentration of the protein (in ng/ml), at which the 50% reduction in the number of cells occurs in the population treated compared to control cells. Results were analyzed using GraphPad Prism 5.0 software. The test was performed according to the literature descriptions (Cells, J E, (1998). Cell Biology, a Laboratory Handbook, second edition, Academic Press, San Diego; Yang, Y., Koh, L W, Tsai, J H., (2004); Involvement of viral and chemical factors with oral cancer in Taiwan, Jpn J Clin Oncol, 34 (4), 176-183). Cell culture medium was diluted to a defined density (10^4-10^5 cells per 100 μl). Then 100 μl of appropriately diluted cell suspension was applied to a 96-well plate in triplicates. […] After stirring, the absorbance was measured at 570 nm (reference filter 690 nm). […]

SK-MES-1 = experiment: MTT cytotoxicity test, SK-MES-1 (human lung cancer); type: cell-based; settings: for SK-MES-1 mean (IC50): Table 4, mean/SD part
Description: (§2) MTT assay is a colorimetric assay used to measure proliferation, viability and cytotoxicity of cells. It consists in decomposition of a yellow tetrazolium salt MTT (4,5-dimethyl-2-thiazolyl)-2,5-diphenyltetrazolium bromide) to the water-insoluble purple dye formazan by mitochondrial enzyme succinate-tetrazolium reductase 1. MTT reduction occurs only in living cells. Data analysis consists in determining IC50 concentration of the protein (in ng/ml), at which the 50% reduction in the number of cells occurs in the population treated compared to control cells. Results were analyzed using GraphPad Prism 5.0 software. The test was performed according to the literature descriptions (Cells, J E, (1998). Cell Biology, a Laboratory Handbook, second edition, Academic Press, San Diego; Yang, Y., Koh, L W, Tsai, J H., (2004); Involvement of viral and chemical factors with oral cancer in Taiwan, Jpn J Clin Oncol, 34 (4), 176-183). Cell culture medium was diluted to a defined density (10^4-10^5 cells per 100 μl). Then 100 μl of appropriately diluted cell suspension was applied to a 96-well plate in triplicates. Thus prepared cells were incubated for 24 h at 37° C. in 5% or 10% CO2, depending on the medium used, and then to the cells (in 100 μl of medium) further 100 μl of the medium containing various concentrations of tested proteins were added. In the case of combination hTRAIL114-281 and p21WAF effector protein, 100 μl of the medium containing mixture of hTRAIL114-281 and p21WAF effector protein in molar ratio 1:1 was added. After incubation of the cells with tested proteins over the period of next 72 hours, which is equivalent to 3-4 times of cell division, the medium with the test protein was added with […] of MTT working solution [5 mg/ml], and incubation was continued for 3 h at 37° C. in 5% CO2. Then the medium with MTT solution was removed, and formazan crystals were dissolved by adding 100 μl of DMSO. After stirring, the absorbance was measured at 570 nm (reference filter 690 nm).
(§3) The results of in vitro cytotoxicity tests are summarized as IC50 values (ng/ml), which corresponds to the protein concentration at which the cytotoxic effect of fusion proteins is observed at the level of 50% with respect to control cells treated only with solvent. Each experiment represents the average value of at least two independent experiments performed in triplicates. As a criterion of lack of activity of protein preparations the IC50 limit of 2000 ng/ml was adopted.

MES-SA/Dx5 = experiment: MTT cytotoxicity test, MES-SA/Dx5 (multidrug-resistant human uterine sarcoma); type: cell-based; settings: for MES-SA/Dx5 mean (IC50): Table 4, mean/SD part
Description: as §2, §3
Cells selected for this test included tumor cell lines that are naturally resistant to TRAIL protein (the criterion of natural resistance to TRAIL: IC50 for TRAIL protein >2000), as well as tumor cell lines sensitive to TRAIL protein and resistant to doxorubicin line MES-SA/DX5 as a cancer line resistant to conventional anticancer medicaments.

A549 = experiment: MTT cytotoxicity test, A549 (human lung cancer); type: cell-based
Description: as §2, §3

[1] = test system: TRAIL sensitive cell lines; experiment: in vitro cytotoxicity tests, TRAIL sensitive cell lines; type: cell-based; settings: continuous incubation over 72 h, test MTT; versus rhTRAIL 95-281 (cell line not given)
Description: as §2, with “nm). […]” for “nm).”

MES-SA = experiment: MTT cytotoxicity test, MES-SA (human uterine sarcoma); type: cell-based; settings: continuous incubation over 72 h, test MTT
Description: as §2, §3

MCF10A = experiment: MTT cytotoxicity test, MCF10A (mammary epithelial cells); type: cell-based; settings: continuous incubation over 72 h, test MTT
Description: as §2, §3

NIH: OVCAR-3 = experiment: MTT cytotoxicity test, NIH: OVCAR-3 (human ovarian cancer); type: cell-based; settings: Table 4, mean/SD part
Description: as §1

NCI-H460 = settings: Table 4, mean/SD part
Procedure: (§7) Data analysis consists in determining IC50 concentration of the protein (in ng/ml), at which the 50% reduction in the number of cells occurs in the population treated compared to control cells. Results were analyzed using GraphPad Prism 5.0 software. […] Cell culture medium was diluted to a defined density (10^4-10^5 cells per 100 μl). Then 100 μl of appropriately diluted cell suspension was applied to a 96-well plate in triplicates. Thus prepared cells were incubated for 24 h at 37° C. in 5% or 10% CO2, depending on the medium used, and then to the cells (in 100 μl of medium) further 100 μl of the medium containing various concentrations of tested proteins were added. […] After incubation of the cells with tested proteins over the period of next 72 hours, which is equivalent to 3-4 times of cell division, the medium with the test protein was added with 20 ml of MTT working solution [5 mg/ml], and incubation was continued for 3 h at 37° C. in 5% CO2. Then the medium with MTT solution was removed, and formazan crystals were dissolved by adding 100 μl of DMSO. After stirring, the absorbance was measured at 570 nm (reference filter 690 nm).

[2] = test system: human colon cancer HCT116; experiment: HCT116 colon cancer xenograft in Crl:CD1-Foxn1^nu 1 mice; type: in vivo; settings: HCT116, Crl:CD1-Foxn1^nu 1 mice, 10 mg/kg i.v., 10 daily applications with a two-day break after the first 5, 27th day
Procedure: (§4) Antitumor activity of protein preparations was tested in a mouse model of human colon cancer HCT116, human colon cancer Colo205, human colon cancer model SW620, human liver cancer model HepG2, and human lung cancer models NCI-H460 and NCI-H460-Luc2.
(§5) The HCT116 (in mice Crl:CD1-Foxn1^nu 1), Colo205, NCI-H460, NCI-H460-Luc2 cells were maintained in RPMI 1640 medium (Hyclone, Logan, Utah, USA) mixed in the ratio of 1:1 with Opti-MEM (Invitrogen, Cat.22600-134) supplemented with 10% fetal calf serum and 2 mM glutamine. On the day of mice grafting, the cells were detached from the support by washing the cells with trypsin (Invitrogen), then the cells were centrifuged at 1300 rpm, 4° C., 8 min., suspended in HBSS buffer (Hanks medium), counted and diluted to the concentration of 25×10^6 cells/ml.
(§6) Examination of antitumor activity of proteins of the invention was conducted on 7-9 week-old CD-nude (Crl:CD1-Foxn1^nu 1) or 4-6 week-old Crl:SHO-Prkdc^scidHr^hr mice obtained from Charles River Germany. Mice were kept under specific pathogen-free conditions with free access to food and demineralised water (ad libitum). All experiments on animals were carried in accordance with the guidelines: “Interdisciplinary Principles and Guidelines for the Use of Animals in Research. […]

[3] = test system: human lung cancer NCI-H460-Luc2; experiment: NCI-H460-Luc2 lung cancer xenograft in Crl:CD1-Foxn1nu 1 mice; type: in vivo; settings: NCI-H460-Luc2, Crl:CD1-Foxn1nu 1 mice, 20 mg/kg i.v. six times every second day, 30th day
Procedure: as §4, §5, §6

UM-UC-3 = experiment: MTT cytotoxicity test, UM-UC-3 (human bladder cancer); type: cell-based; settings: Table 4, mean/SD part
Description: as §1

[4] = continuous incubation over 72 h, test MTT

Procedure for HCT-116: as §7

B1: Ex. 17: fusion protein: 13-amino acid fragment of tubulin with 6 arginine residues at N-terminus of TRAIL121-281, uPA and MMP sites (protein)
chain: FRRKAFLHWYTGRRRRRRRRVVRPLGLAGRVAAHITGTRGRSNTLSSPNSKNEKALGRKINSWESSRSGHSFLSNLHLRNGELVIHEKGFYYIYSQTYFRFQEEIKENTKNDKQMVQYIYKYTSYPDPILLMKSARNSCWSKDAEYGLYSIYQGGIFELKENDRIFVSVTNEHLIDMDHEASFFGAFLVG
modifications: synthesized, a fusion protein comprising: a fragment of TRAIL protein, a fragment of tubulin peptide, cleavage sites recognized by urokinase uPA and metalloprotease MMP and an arginine transporting domain.
notes: fusion protein: 13-amino acid fragment of tubulin with 6 arginine residues at N-terminus of TRAIL121-281, uPA and MMP sites
HT 29 mean (IC50) (HT-29): 6.808 µg/mL and 7.818 µg/mL
SK-MES-1 mean (IC50) (SK-MES-1): 0.08119 µg/mL
MES-SA/Dx5 mean (IC50) (MES-SA/Dx5; listed as Ex. 17^a): 0.07596 µg/mL and 0.04426 µg/mL
A549 mean (IC50) (A549; Table 4, mean/SD part): 2.887 µg/mL

HCT116 IC50 (HCT-116; [4]): 0.1235 µg/mL
B2: Ex. 14: fusion protein: 13-amino acid fragment of MEK-1 protein with antennapedia sequence at C-terminus of TRAIL121-281, MMP and uPA sites (protein)
chain: RVAAHITGTRGRSNTLSSPNSKNEKALGRKINSWESSRSGHSFLSNLHLRNGELVIHEKGFYYIYSQTYFRFQEEIKENTKNDKQMVQYIYKYTSYPDPILLMKSARNSCWSKDAEYGLYSIYQGGIFELKENDRIFVSVTNEHLIDMDHEASFFGAFLVGGSPLGLAGRVVRDRQIKIWFQNRRMKWKKGMPKKKPTPIQLN
modifications: synthesized, a fusion protein comprising: a fragment of TRAIL protein, a fragment of MEK-1 protein - an inhibitor of ERK activation, cleavage sites recognized by uPA and MMP, an antennapedia transporting domain and a glycine- cysteine linker.
IC50 [1]: 0.049 µg/mL
MES-SA IC50 (MES-SA): 0.2312 µg/mL
MCF10A IC50 (MCF10A): >2 µg/mL
SK-MES-1 IC50 (SK-MES-1; [4]): 0.02848 µg/mL
MES-SA/Dx5 IC50 (MES-SA/Dx5; [4]): 0.01373 µg/mL
A549 IC50 (A549; [4]): 1.767 µg/mL

HCT116 mean (IC50) (HCT-116; Table 4, mean/SD part): 0.06 µg/mL and 0.06087 µg/mL
NCI-H460 mean (IC50) (NCI-H460): 4.246 µg/mL
B3: Ex. 2^a: fusion protein: 8-amino acid fragment of human fetoprotein (SEQ. No. 28) at N-terminus of TRAIL114-281, uPA cleavage site (protein)
chain: EMTPVNPGRVVRERGPQRVAAHITGTRGRSNTLSSPNSKNEKALGRKINSWESSRSGHSFLSNLHLRNGELVIHEKGFYYIYSQTYFRFQEEIKENTKNDKQMVQYIYKYTSYPDPILLMKSARNSCWSKDAEYGLYSIYQGGIFELKENDRIFVSVTNEHLIDMDHEASFFGAFLVG
modifications: synthesized, a fusion protein comprising: a fragment of TRAIL protein, a fragment of human fetoprotein and a cleavage site recognized by urokinase uPA.
OVCAR-3 mean (IC50) (NIH: OVCAR-3): 0.0261 µg/mL
tumor growth inhibition (TGI) relative to the control [2]: 71.2%
tumor growth inhibition (TGI) relative to the control [3]: 81.3%
SK-MES-1 mean (IC50) (SK-MES-1): 0.01888 µg/mL
UM-UC-3 mean (IC50) (UM-UC-3): 0.03506 µg/mL
MES-SA/Dx5 mean (IC50) (MES-SA/Dx5): 0.01896 µg/mL
